Reference: PMC5072561

Legend:
[1] = molecular target: tunA (tunicate A, CBY12809.1), Oikopleura dioica S100 protein (Oikopleura dioica); assay: native MS; nanoESI time-of-flight MS; 10 or 100 mM ammonium acetate, pH 7.4; protein diluted from 10 uM to 0.01 uM; monomer to dimer
[2] = molecular target: tunA (tunicate A, CBY12809.1), Oikopleura dioica S100 protein (Oikopleura dioica); assay: AUC; sedimentation velocity; ~50 uM protein; 25 mM TES, 100 mM NaCl, 1 mM TCEP, pH 7.4; interference optics; c(s) by SedFit; monomer to dimer
[3] = molecular target: tunB (tunicate B, CBY30360.1), Oikopleura dioica S100 protein (Oikopleura dioica); assay: native MS; nanoESI time-of-flight MS; 10 or 100 mM ammonium acetate, pH 7.4; protein diluted from 10 uM to 0.01 uM; monomer to dimer
[4] = molecular target: tunB (tunicate B, CBY30360.1), Oikopleura dioica S100 protein (Oikopleura dioica); assay: AUC; sedimentation velocity; ~50 uM protein; 25 mM TES, 100 mM NaCl, 1 mM TCEP, pH 7.4; interference optics; c(s) by SedFit; monomer to dimer

Substance | stoichiometry N [1] | stoichiometry N [2] | stoichiometry N [3] | stoichiometry N [4]
tunA (tunicate A, CBY12809.1), Oikopleura dioica S100 protein (natural protein) | 2 | 2 | – | –
tunB (tunicate B, CBY30360.1), Oikopleura dioica S100 protein (natural protein) | – | – | 2 | 2
